Laboratory results taken from PMC6331220.

Biological target: T1, BsSsbA (Bacillus subtilis, UniProt P37455 1-104)
T1 sequence: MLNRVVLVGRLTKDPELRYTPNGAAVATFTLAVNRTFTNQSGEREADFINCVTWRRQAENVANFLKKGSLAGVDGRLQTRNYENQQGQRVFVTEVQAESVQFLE
Experiment: X-ray crystallography

B1: dT35 (ssDNA)
DNA: TTTTTTTTTTTTTTTTTTTTTTTTTTTTTTTTTTT
binding result: binds
